# Assay results: the DeepSol protein solubility set
# Assay: soluble on expression in E. coli; label from the status in PepcDB or PDB records
row,Sequence,soluble on expression in E. coli
1,MSGFIPGSTTGSMLTAISDTHGTDNHRLTGRTLDAVREADHVLHAGDFMTEQVLDAIDAESDELTGVVGNNDRPAVRARLSDVATVSWEELTIVVVHGHEHTETALGMLARQENADIVVVGHSHKPVLTDFGGWTLVNPGSYADPRRYQPAHAELDVMAGDVRVRLRSPDGTPISTTIVERLEHHHHHH,not soluble
2,MATIRTKFRSSSAEGREGALYYQVIHNRVVRQISTGYKLFASEWDQRSEAVIPCQHPAGMERDNYLLSVGERIRRDKIRLEKAIRTLSQSGPFTADDIVIRFHDSGQEPSFNDYIRQQIVRLKRLGKIRTSETYTAALKSFSSFMKGSDILFGELSSDLLMEYEAYLKNRGNSPNTISFYMRILKAVYNRAVENGLTGQRNLFKSVYTGVEKTLKRAIHLNDIRRIKRLDLSLKPHLDFARDMFLFCFYTRGMSFVDMAYLKKGDIANGILTYRRKKTGQQLFIRWEKCMQEIIKLFCLSVQDFKVVH,not soluble
3,MGSDKIHHHHHHMQKKRFFDMRKYRFFSSIECDAMLTFKQMEALYWIVQLGSFDAAATRLNTTQSAVSKRIQELERAFDLTVFDRAHRSARLTDKGAELFDHAKELLEQRDRVVERMSSKEALVRHVRIGVTELTALTWLPRLIAAIQAAYPRVHVEAEVDLTATLRERLAADTIDLIVVPQIHAAESFAATVVGEVDNAWMCAPGFMPKRKTAISLTDVARFPLILQGTLSGTGHLYTRFLQEHCVAMQRVLTSNSLIAQIGLTLSGLGVSYLPKACVAHLVACEALDIVRTRPALPPVRYVALHRAERAHSLTADIVRLAAQACDFSTSLLDPGAHD,not soluble
4,LPTSNPAQELEARQLERTTRDDLINGNSASCADVIFIYARGSTEAGNLGTLGPSIASNLESAFGKDGVWIQGVGGAYRATLGDNALPRGTSSAAIREMLGLFQQANTKCPDATLIAGGYSQGAALAAASIEDLDSAIRDKIAGTVLFGYTKNLQNRGRIPNYPADRTKVFCNTGDLVCTGSLIVAAPHLAYGPDARGPAPEFLIEKVRAVRGSA,soluble
5,QVQLVQSGPELKKPGETVKISCKASGYMFTNYGMNWVKQAPGKALKWMGWINPYTGESTFADDFKGRFAFFLETSATTAYLQINNLKNEDTATYFCARGTTIVWAMDYWGQGTSVTVSSASTKGPSVFPLAPSSKSTSGGTAALGCLVKDYFPEPVTVSWNSGALTSGVHTFPAVLQSSGLYSLSSVVTVPSSSLGTQTYICNVNHKPSNTKVDKKVEPLSCDKTHT,soluble
6,MGSDKIHHHHHHRWIPGSRDFDSWLVTLHAQLLAEVDYPRELRMAQVMTEGLAQHEALQSAPVTLRVPHFWPEHCSTNVLTMDYVEGHRAASPEVAALPQSARNELGKAMLQLFFAEVFDLGLVQTDPNFGNYLINDDGTELTLLDFGSVFELDETVRTALCDTIVAGLTNDETRLELALVALGCLKPGAGESAKATFKAFIRNLLEPLRPPEALPPEHLNAEGLYCWGHSELVNRTGQQVARSLTNREFAIPSSDFAMVARKLTGVFTFIAVLDAEFNGHDIAAPYLDEVTAGGET,not soluble
7,SLAEGLITGTVLTQFDQLYRKKPGMTMSCAKLPQNISKNRYRDISPYDATRVILKGNEDYINANYINMEIPSSSIINQYIACQGPLPHTCTDFWQMTWEQGSSMVVMLTTQVERGRVKCHQYWPEPTGSSSYGCYQVTCHSEEGNTAYIFRKMTLFNQEKNESRPLTQIQYIAWPDHGVPDDSSDFLDFVCHVRNKRAGKEEPVVVHCSAGIGRTGVLITMETAMCLIECNQPVYPLDIVRTMRDQRAMMIQTPSQYRFVCEAILKVYEEGFVKPLTTSTNK,not soluble
8,MSGVRMIDRWEEDNKMFLRLYIKERVLPTIYGSILGDLVGVPVEFKKRGSFFVEDIIGYGTYNQPAGTWSDDTSLTLCLIENIVEEGTIKSLMEKFVNYQDKGYMTPYGQMFDIGGATAQAIGRFKAGCLPQNCGGQSEYDNGNGAIMRISPLAFLFDNEFDFVKKAEVIKQYTEITHAHPRAIVGSIIYIELLLRLYHNNTLEKSIKDILDLFEENFPKNHIYMDEFKYYKRIFDSNFFNVPEEQILSDGYVVHTLEAAIWCVGNTKNFKEAILKAVNLGGDTDTVGVITGAIAGMYYKMDEIPQDWLNKIAKKQDIDELINKFYKYCADKAVIEKYGSL,not soluble
9,MSLIEIPGFIDLHTHTRYPDNDKFPFIDIDDSAINGGFSTILAMPNSEIPIDSIKNLRIAQEIDKKLKTKVHRVGSLTKNLEGKELVNYKEFVENGITIFSDDGKSLINDHLADEAFKQISKLGGAVFQHCEKSCHSKPGDIAPPNSNSDLILINNDEELEVLERDLSLSEKYGTRYHAQHLSTFESVELIKKAKQEGLPVTAEVTPHHILLNNENLDTNNGLFKMYPPLRTEKDREGLVEGLQSEIIDVIATDHAPHKAETKNVPFKDANRGVVGLNEGHHHHHH,soluble
10,MGHHHHHHSHMPPAAAGPLAGQPRKSSSSRRNAWGNLSYADLITKAIESSAEKRLTLSQIYEWMVKSVPYFKDKGDSNSSAGWKNSIRHNLSLHSKFIRVQNEGTGKSSWWMLNPEGGKSGKSPRRRAASMDNNSKFAKSRSRAAKKKA,soluble
11,MDAKVAFSPHSDANGRLDEIGADIDTAQSSVLFSLAFLGQMTRGAIGPALGRALERPEVHVMGIADAEVRAGNLGLNVLTPDNRRRVVRAAALTGNVPPPFLTEPSGLAGVDGNQRGTRMHHKFVVLDFDKPTARVYLGSYNFSNPADDENGENLVVVRDRTVATSYMIEALRMYDHYVFRVASEASDGPARPLEHHHHHH,not soluble
12,MADLIARLREDGIQKRVIQEGRGELPDFQDGTKATFHFRTLHSDNEGSVIDDSRTRGKPMELIVGKKFKLPVWETIVCTMREGEIAQFLCDIKHVVLYPLVAKSLRNIAEGKDPLEGQRHCCGIAQMHEHSSLGHADLDALQQNPQPLIFHIEMLKVESPGTYQQDPWAMTDEEKAKAVPVIHQEGNRLYREGQVKEAAAKYYDAIACLKNLQMKEQPGSPDWIQLDLQITPLLLNYCQCKLVAQEYYEVLDHCSSILNKYDDNVKAYFKRGKAHAAVWNAQEAQADFAKVLELDPALAPVVSRELRALETRIRQKDEEDKARFRGIFSH,soluble
13,QADMPLERIIEAEKRVECNDPLVALVVNENNTTVNNICQATHKQLFQLVQWAKLVPHFTSLPLTDQVQLLRAGWNELLIAAFSHRSMQAQDAIVLATGLTVNKSTAHAVGVGNIYDRVPSELVNKMKEMKMDKTELGCLRAIILYNPDVRGIKSVQEVEMLREKIYGVLEEYTRTTHPNEPGRFAKLLLRLPALRSIGLKCLEHLFFFKLIGDVPIDTFLMEMLEGTTDS,soluble
14,MAQTQSPLQWLATTLIRGYQIFISPILGPRCRFNPTCSHYAIEAIKVHGTAKGCWFALKRILKCHPLHPGGSDPVPPKNDRCNKLEHHHHHH,not soluble
15,MSASETRSKVLTDESTGSTAIEESPRNRQNEEPEQTSQTENLQTDPFNARISEIFEKQTVAFERQMMIKEEEFMSQMKEREEVKLKDLETKLENFEKWRKEIRLEGAKELNIKLHSEPEVSAELEHEGGLQEK,not soluble
16,MGSDKIHHHHHHMNSLQSTHPPKLNSCDRQVILDYFENAWQLEDMLMKTLVEEDTFYLNPDPLRNPLIFYLGHSAVFYINKLISVGLLEKRINPDYEILFEIGVDPEVPEELNQAIAHLEWPQVAQTWEYRKQAYTVIAEVIKTTPITLPIHPTHPLWALMMGIEHQRIHIETSSMLIRQLPIERVKRPQNWQYAPFNGYTAQNEMIQVIGGVVKLGKAFNDPTYGWDIDYGDRTVEVEPFLASKYLITNADFSYFVKAGGYENQAYWDEESWHWKTENNIQYPKFWIHQNGIYKYRAMFDEIDLPLDWPVEVNHYEAMAYCCWQGKDTRLMSEAEYHLATYGSGLVEDVDNYNVNLKFGSPSPVGMLETAKSYSGLYDLRGNVWEHLSDNLNPLPGYKPHFLYEDNSAIFFDNKHQMMLGGCWITNGTEALKYYRNWFRPNFYQHAGFRIVQDMKH,not soluble
17,ASWSHPQFEKSGGGGGLVPRGSKRADAGTASALAASQLPQATMPGKSMVAIAGSSYQGQNGLAIGVSRISDNGKVIIRLSGTTNSQGKTGVAAGVGYQW,soluble
18,MAIYYNGLKIESNEEVYEPAEDTFLLAESLLDEVKSDDIVLDVGTGTGILALLAARRARFVVGLDINEKAINLAWKNAKINGIKNVVFILSDLFENIRGTFDLIVFNPPYLPGEEIKDKVDLALIGGKTGGEVISRFLGSVKDYLSSRGRILLIYSSLTGLDVEKAFKERGFSTSIVKRRRFFFEELYVMKAELSSRL,soluble
19,MLLEAPVYKEIFGAVTIHEVQKVIKMDTETEEVPIYTISNIPREKIYDLLGKMAVIVPMKNEKLHLVDGVLKAIPHKCPIIIVSNSKREGPNRYKLEVDLIRHFYNLTHSKIIMIHQKDPGLAKAFKEVGYTDILDENGMIRSGKGEGMLVGLLLAKAIGAEYVGFVDADNYIPGAVNEYVKDYAAGFLMSESEYTMVRLHWRHKPKVTKGTLYFKKWGRVSEITNHYLNLLVSEHTAFETTIMVTGNAGEHAMTMKLAEILPFSTGYSIEPYEIVYILERFGKWENVEEFKDVFDQGIEIFQIETLNPHFHEDKGKEHVKEMLLLSLATIYHSKLATDNLRKRILKDLRDHGILGENEEPPKPLVMRPIKEIPIKEWMDIVEGNSETLLRFEL,soluble
20,MTAHRSVLLVVHTGRDEATETARRVEKVLGDNKIALRVLSAEAVDRGSLHLAPDDMRAMGVEIEVVDADQHAADGCELVLVLGGDGTFLRAAELARNASIPVLGVNLGRIGFLAEAEAEAIDAVLEHVVAQDYRVEDRLTLDVVVRQGGRIVNRGWALNEVSLEKGPRLGVLGVVVEIDGRPVSAFGCDGVLVSTPTGSTAYAFSAGGPVLWPDLEAILVVPNNAHALFGRPMVTSPEATIAIEIEADGHDALVFCDGRREMLIPAGSRLEVTRCVTSVKWARLDSAPFTDRLVRKFRLPVIGWRGK,soluble
21,TMSSCVSSQPSSNRAAPQDELGGRGSSSSESQKPCEALRGLSSLSIHLGMESFIVVTECEPGCAVDLGLARDRPLEADGQEVPLDSSGSQARPHLSGRKLSLQERSQGGLAAGGSLDMNGRCICPSLPYSPVSSPQSSPRLPRRPTVESHHVSITGMQDCVQLNQYTLKDEIGKGSYGVVKLAYNENDNTYYAMKVLSKKKLIRQAGFPRRPPPRGTRPAPGGCIQPRGPIEQVYQEIAILKKLDHPNVVKLVEVLDDPNEDHLYMVFELVNQGPVMEVPTLKPLSEDQARFYFQDLIKGIEYLHYQKIIHRDIKPSNLLVGEDGHIKIADFGVSNEFKGSDALLSNTVGTPAFMAPESLSETRKIFSGKALDVWAMGVTLYCFVFGQCPFMDERIMCLHSKIKSQALEFPDQPDIAEDLKDLITRMLDKNPESRIVVPEIKLHPWVTRHGAEPLPSEDENCTLVEVTEEEVENSVKHIPSLATVILVKTMIRKRSFGNPFEGSRREERSLSAPGNLLTKKPTRECESLSELKGTKKKKGLDSMTSTVAAGWLDRRV,soluble
22,MGSDKIHHHHHHMSVRQPLPERLRPTVLEGFVGQTHLTQRIEALLRANRLPSLLLFGPPGCGKSTLALLLAKARSANVLRLSAPEAGLQHLRKQLHGVDILVLDELHRFSKAQQDFFLPLLESGDITMLATTTENPSFSVTRQLLSRLHVLRLRPLGRAELLELGRRGAVAQEVQIEDDVLDLLASMSHGDARTMLNLLEYVAALPEDKRDIEGVRSAMPEIVSRHDKDGDNHYELASALIKSIRGSDPDAALYYLACLLEGGEDPRFVCRRLILSASEDVGLADPQALPLAVACMQAVEYVGMPEGFIPMAQTTVHLALARKSNSTYAAYINAARELKTQGRKGVPLHLRNPSTRLQKEWGYGKGYRYPHSYPEGWIEQEYLPEGLEDRRFYAPRENGEEPRLSAWWRKLQRQRPPRRGSGE,not soluble
